Laboratory results as given in article doi:10.1101/2022.11.07.515236 (bioRxiv, 2022).

Key:
[1] = molecular target: T1, recombinant human ACTRIIA-Fc (human, UniProt P27037); test: BLI
[2] = molecular target: T2, Fc chimera of recombinant human type II BMP receptor BMPRII (human, UniProt Q13873); test: BLI
T2 sequence: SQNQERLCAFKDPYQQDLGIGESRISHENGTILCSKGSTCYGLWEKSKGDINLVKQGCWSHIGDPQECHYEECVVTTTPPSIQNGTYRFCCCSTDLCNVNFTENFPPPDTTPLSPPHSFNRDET

[3] = molecular target: T1, recombinant human ACTRIIA-Fc; test: SPR
[4] = molecular target: T2, Fc chimera of recombinant human type II …; test: SPR

T1 sequence (P27037 20-135): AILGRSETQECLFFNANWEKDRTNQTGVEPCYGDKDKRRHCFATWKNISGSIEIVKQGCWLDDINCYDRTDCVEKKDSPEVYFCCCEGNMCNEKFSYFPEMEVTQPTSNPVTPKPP

Binder | binding result [1] | binding result [2] | binding result [3] | binding result [4]
recombinant mouse GDF3 (ligand) AAISVPKGFCRNFCHRHQLFINFQDLGWHKWVIAPKGFMANYCHGECPFSMTTYLNSSNYAFMQALMHMADPKVPKAVCVPTKLSPISMLYQDSDKNVILRHYEDMVVDECGCG | binds | binds |  | 
recombinant human GDF3 (ligand) AAIPVPKLSCKNLCHRHQLFINFRDLGWHKWIIAPKGFMANYCHGECPFSLTISLNSSNYAFMQALMHAVDPEIPQAVCIPTKLSPISMLYQDNNDNVILRHYEDMVVDECGCG |  |  | binds | binds
